Experimental data: patent US20230227537A1 (VIB VZW, published 2023)
Where two headings read alike, the source gives them in different places.

How the values were obtained:
[1] = biological target: T1, Mouse IgG1 Fc fused SARS-CoV-2 RBD (Sino Biological) (SARS-CoV-2; mouse, UniProt P0DTC2 330-518)
[2] = biological target: T1, Mouse IgG1 Fc fused SARS-CoV-2 RBD …; remark: listed apart in the source
[3] = biological target: SARS-CoV-2 spike, full length, on cells or on pseudotyped/authentic virus (SARS-CoV-2, UniProt P0DTC2 14-1273); assay: cell-based or functional assay
[4] = biological target: T1, Mouse IgG1 Fc fused SARS-CoV-2 RBD …; assay: BLI, RBD-mFc on AMC tips, global 1:1 fit
[5] = biological target: T2, monomeric human Fc-fused SARS-CoV-2_RBD-SD1 (SARS-CoV-2, UniProt P0DTC2 319-591); assay: BLI, RBD-SD1-mono-hFc on AHC tips
[6] = biological target: T2, monomeric human Fc-fused …; assay: BLI kinetics on RBD-mono-hFc, 1:1 fit, mean ± SD, n = 2 [upper graph]
[7] = biological target: T3, SARS-CoV-2 RBD protein Avi-tag biotinylated (AcroBiosystems SPD-C82E9) (SARS-CoV-2, UniProt P0DTC2 330-518)
[8] = biological target: T2, monomeric human Fc-fused …; assay: BLI kinetics on RBD-mono-hFc, 1:1 fit, mean ± SD, n = 2
[9] = biological target: T2, monomeric human Fc-fused …; assay: BLI kinetics on RBD-mono-hFc, 1:1 fit, mean ± SD, n = 2 [lower graph]
[10] = biological target: T1, Mouse IgG1 Fc fused SARS-CoV-2 RBD …; assay: BLI, immobilized RBD-mFc
[11] = biological target: T1, Mouse IgG1 Fc fused SARS-CoV-2 RBD …; remark: listed apart in the source
[12] = biological target: T3, SARS-CoV-2 RBD protein Avi-tag …; remark: listed apart in the source
[13] = biological target: WT SARS-CoV-2 RBD displayed on Saccharomyces cerevisiae (SARS-CoV-2, UniProt P0DTC2 331-518)
[14] = biological target: T3, SARS-CoV-2 RBD protein Avi-tag …; remark: listed apart in the source
[15] = biological target: T1, Mouse IgG1 Fc fused SARS-CoV-2 RBD …; remark: listed apart in the source
[16] = biological target: T3, SARS-CoV-2 RBD protein Avi-tag …; remark: listed apart in the source
[17] = biological target: T3, SARS-CoV-2 RBD protein Avi-tag …; remark: listed apart in the source

B1: D72-22: h1-VHH72-[change]-GS-hIgG1hinge-hIgG1Fc (Fc fusion)
chain: EVQLVESGGGLVQPGGSLRLSCAASGRTFSEYAMGWFRQAPGKEREFVATISWSGGATYYTDSVKGRFTISRDNAKNTVYLQMNSLRPEDTAVYYCAAAGLGTVVSEWDYDYDYWGQGTLVTVSSGS
Q: With B1 as the binder, how does the EC50 [1] read?
A: The EC50 was 0.00439 µg/mL.

Q: And the Kd [2]?
A: The Kd was 0.0471 nM.

Q: What about the koff [2] of the same binder?
A: Its koff is 4.87e-05 s⁻¹.

Q: And the kon [2]?
A: The kon was 1.07e+06 M⁻¹ s⁻¹.

Q: What about the “IC50, plaque reduction neutralization, authentic SARS-CoV-2” value [3] of the same binder?
A: The value was 0.12 µg/mL.

B2: D72-17: h1-VHH72-GS-hIgG1hinge-hIgG1Fc-L234A-L235A-P329G (Fc fusion)
chain: EVQLVESGGGLVQPGGSLRLSCAASGRTFSEYAMGWFRQAPGKEREFVATISWSGGSTYYTDSVKGRFTISRDNAKNTVYLQMNSLRPEDTAVYYCAAAGLGTVVSEWDYDYDYWGQGTLVTVSSGS
notes: ExpiCHO
Q: With B2 as the binder, how does the EC50 [1] read?
A: Its EC50 is 0.00836 µg/mL.

Q: And the Kd [4]?
A: Its Kd is 0.1 nM.

Q: And the koff [4]?
A: The koff was 0.000178 s⁻¹.

Q: What about the kon [4] of the same binder?
A: Its kon is 1.77e+06 M⁻¹ s⁻¹.

B3: D72-15: VHH72-GS-hIgG1hinge-hIgG1Fc-L234A-L235A-P329G (Fc fusion)
chain: QVQLQESGGGLVQAGGSLRLSCAASGRTFSEYAMGWFRQAPGKEREFVATISWSGGSTYYTDSVKGRFTISRDNAKNTVYLQMNSLKPDDTAVYYCAAAGLGTVVSEWDYDYDYWGQGTQVTVSSGS
notes: ExpiCHO
Q: Which EC50 [1] does the source give for B3 here?
A: The EC50 was 0.0108 µg/mL.

Q: What about the Kd [4] of the same binder?
A: Its Kd is 0.13 nM.

Q: And the koff [4]?
A: Its koff is 0.000297 s⁻¹.

Q: What about the kon [4] of the same binder?
A: Its kon is 2.29e+06 M⁻¹ s⁻¹.

B4: VHH3.77 (VHH)
VHH: QVQLQESGGGLVQAGGSLRLSCVSSGRAFGNGAVGWFRQGPGRPREFVATVSWNGGGTYFAESVRGRFTISRDNAKNTVYLQMNNLKPEDTAVYYCALAGEGTVVSEWDYDYEYWGQGTQVTVSS
Q: B4 was tested. Which Kd [5] did it give?
A: Its Kd is 0.15 nM.

Q: And the Kd [6]?
A: Its Kd is 0.153 nM.

Q: And the koff [6]?
A: Its koff is 0.000297 s⁻¹.

Q: What about the kon [6] of the same binder?
A: The kon was 1.96e+06 M⁻¹ s⁻¹.

Q: What about the IC50 [7] of the same binder?
A: The IC50 was 0.237 nM.

B5: VHH3.17 (VHH)
VHH: QVQLQESGGGLVEAGGSLTLSCAASGRAFGDGAVGWFRQGPGRPREFVATVSWNGGGTYFAESVRGRFTISRDNAKNTVYLQMNNLKPEDTAVYYCALAGEGTVVSEWDYDYEYWGQGTQVTVSS
Q: With B5 as the binder, how does the Kd [5] read?
A: Its Kd is 0.234 nM.

Q: What about the koff [8] of the same binder?
A: The koff was 0.000358 s⁻¹.

Q: What about the kon [8] of the same binder?
A: The kon was 1.54e+06 M⁻¹ s⁻¹.

Q: And the IC50 [7]?
A: The IC50 was 0.316 nM.

B6: VHH3.115 (VHH)
VHH: QVQLQESGGGLVQTGGSLRLSCAASGLTFSDIAMGWFRQAPGREREFVATISWSGGGTYYAEPVRGRFAISRDNAKNTVYLQMNSLKPEDTAVYYCAAAGAGTVVSEWDYDYDYWGQGTQVTVSS
Q: How did the Kd [5] turn out when B6 was run?
A: Its Kd is 0.734 nM.

Q: What about the koff [9] of the same binder?
A: Its koff is 0.00157 s⁻¹.

Q: And the kon [9]?
A: The kon was 2.14e+06 M⁻¹ s⁻¹.

Q: What about the IC50 [7] of the same binder?
A: Its IC50 is 0.409 nM.

B7: D72-55: VHH72_h1_E1D_S56A-(G4S)3-VHH72_h3_S56A-GS-hIgG1hinge_EPKSCdel-hIgG1Fc_LALAPG_Kdel (Fc fusion)
chain: DVQLVESGGGLVQPGGSLRLSCAASGRTFSEYAMGWFRQAPGKEREFVATISWSGGATYYTDSVKGRFTISRDNAKNTVYLQMNSLRPEDTAVYYCAAAGLGTVVSEWDYDYDYWGQGTLVTVSSGGGGSGGGGSGGGGSDVQLVESGGGLVQPGGSLRLSCAASGRTFSEYAMGWFRQAPGKEREFVATISWSGGATYYTDSVKGRFTISRDNAKNTVYLQMNSLRPEDTAVYYCAAAGLGTVVSEWDYDYDYWGQGTLVTVSSGSDKTHTCPPCPAPEAAGGPSVFLFPPKPKDTLMISRTPEVTCVVVDVSHEDPEVKFNWYVDGVEVHNAKTKPREEQYNSTYRVVSVLTVLHQDWLNGKEYKCKVSNKALGAPIEKTISKAKGQPREPQVYTLPPSRDELTKNQVSLTCLVKGFYPSDIAVEWESNGQPENNYKTTPPVLDSDGSFFLYSKLTVDKSRWQQGNVFSCSVMHEALHNHYTQKSLSLSPG
notes: Tetravalent; ExpiCHO
Q: With B7 as the binder, how does the “fold higher affinity than its bivalent counterpart” value [10] read?
A: The value was greater than 100 fold.

Q: And the “PRNT50, authentic SARS-CoV-2” value [3]?
A: Its value is 0.02 µg/mL.

Q: And the “fold lower PRNT50 than the parental construct” value [3]?
A: Its value is 50 fold.

B8: VHH72_h1(E1D,S56A) sequence optimized (SO), monovalent (VHH)
VHH: DVQLVESGGGLVQPGGSLRLSCAASGRTFSEYAMGWFRQAPGKEREFVATISWSGGATYYTDSVKGRFTISRDNAKNTVYLQMNSLRPEDTAVYYCAAAGLGTVVSEWDYDYDYWGQGTLVTVSS
Q: Which results are given for B8?
A: koff [11]: 0.00568 s⁻¹; koff [12]: 0.0024 s⁻¹

B9: VHH72_h1(S56A) (VHH)
VHH: EVQLVESGGGLVQPGGSLRLSCAASGRTFSEYAMGWFRQAPGKEREFVATISWSGGATYYTDSVKGRFTISRDNAKNTVYLQMNSLRPEDTAVYYCAAAGLGTVVSEWDYDYDYWGQGTLVTVSS
Q: For B9, which “EC50 (read off the curve)” value [13] is on record?
A: The value was roughly 0.3 µg/mL.

Q: And the Kd [14]?
A: Its Kd is 3.09 nM.

Q: What about the “fold improvement of KD against VHH72 h1” value [14] of the same binder?
A: The value was 3 fold.

Q: And the koff [14]?
A: The koff was 0.00069 s⁻¹.

Q: What about the Kd [15] of the same binder?
A: The Kd was 5.26 nM.

Q: What about the “fold better competition than VHH72-wt and VHH72_h1” value [15] of the same binder?
A: The value was 7 fold.

Q: What about the “fold improvement of KD against VHH72 h1” value [15] of the same binder?
A: Its value is greater than 6 fold.

B10: PB9677 hIgG4 FALA (Fc fusion)
VHH: DVQLVESGGGLVQPGGSLRLSCAASGRTFSEYAMGWFRQAPGKEREFVATISWSGGATYYTDSVKGRFTISRDNAKNTVYLQMNSLRPEDTAVYYCAAAGLGTVVSEWDYDYDYWGQGTLVTVSS
Q: For B10, which “IC50 (read off the curve)” value [16] is on record?
A: Its value is roughly 0.02 µg/mL.

B11: VHH72_h1 (E1D) (VHH)
VHH: DVQLVESGGGLVQPGGSLRLSCAASGRTFSEYAMGWFRQAPGKEREFVATISWSGGSTYYTDSVKGRFTISRDNAKNTVYLQMNSLRPEDTAVYYCAAAGLGTVVSEWDYDYDYWGQGTLVTVSS
Q: What does the source list for B11?
A: Kd [17]: 10.4 nM; koff [17]: 0.00204 s⁻¹; Kd [11]: 31.1 nM; koff [11]: 0.0313 s⁻¹; koff [12]: 0.00354 s⁻¹
